Literature values as cited in paper PMC10770464.
pKd: −log10 of the molar value.

What was measured:
[1] = biological target: Apolipoprotein A (Homo sapiens) (UniProt P08519)
[2] = biological target: High mobility group box-1 (Homo sapiens) (UniProt P09429)
[3] = biological target: Tissue plasminogen activator (Homo sapiens) (UniProt P00750); assay: ELISA
[4] = biological target: Hepatocyte growth factor (Homo sapiens) (UniProt P14210); assay: ELISA
[5] = biological target: Plasminogen kringle 4 (Homo sapiens) (UniProt P00747)
[6] = biological target: Plasminogen (Homo sapiens) (UniProt P00747)

Chain of UniProt P08519 (P08519 20-2040): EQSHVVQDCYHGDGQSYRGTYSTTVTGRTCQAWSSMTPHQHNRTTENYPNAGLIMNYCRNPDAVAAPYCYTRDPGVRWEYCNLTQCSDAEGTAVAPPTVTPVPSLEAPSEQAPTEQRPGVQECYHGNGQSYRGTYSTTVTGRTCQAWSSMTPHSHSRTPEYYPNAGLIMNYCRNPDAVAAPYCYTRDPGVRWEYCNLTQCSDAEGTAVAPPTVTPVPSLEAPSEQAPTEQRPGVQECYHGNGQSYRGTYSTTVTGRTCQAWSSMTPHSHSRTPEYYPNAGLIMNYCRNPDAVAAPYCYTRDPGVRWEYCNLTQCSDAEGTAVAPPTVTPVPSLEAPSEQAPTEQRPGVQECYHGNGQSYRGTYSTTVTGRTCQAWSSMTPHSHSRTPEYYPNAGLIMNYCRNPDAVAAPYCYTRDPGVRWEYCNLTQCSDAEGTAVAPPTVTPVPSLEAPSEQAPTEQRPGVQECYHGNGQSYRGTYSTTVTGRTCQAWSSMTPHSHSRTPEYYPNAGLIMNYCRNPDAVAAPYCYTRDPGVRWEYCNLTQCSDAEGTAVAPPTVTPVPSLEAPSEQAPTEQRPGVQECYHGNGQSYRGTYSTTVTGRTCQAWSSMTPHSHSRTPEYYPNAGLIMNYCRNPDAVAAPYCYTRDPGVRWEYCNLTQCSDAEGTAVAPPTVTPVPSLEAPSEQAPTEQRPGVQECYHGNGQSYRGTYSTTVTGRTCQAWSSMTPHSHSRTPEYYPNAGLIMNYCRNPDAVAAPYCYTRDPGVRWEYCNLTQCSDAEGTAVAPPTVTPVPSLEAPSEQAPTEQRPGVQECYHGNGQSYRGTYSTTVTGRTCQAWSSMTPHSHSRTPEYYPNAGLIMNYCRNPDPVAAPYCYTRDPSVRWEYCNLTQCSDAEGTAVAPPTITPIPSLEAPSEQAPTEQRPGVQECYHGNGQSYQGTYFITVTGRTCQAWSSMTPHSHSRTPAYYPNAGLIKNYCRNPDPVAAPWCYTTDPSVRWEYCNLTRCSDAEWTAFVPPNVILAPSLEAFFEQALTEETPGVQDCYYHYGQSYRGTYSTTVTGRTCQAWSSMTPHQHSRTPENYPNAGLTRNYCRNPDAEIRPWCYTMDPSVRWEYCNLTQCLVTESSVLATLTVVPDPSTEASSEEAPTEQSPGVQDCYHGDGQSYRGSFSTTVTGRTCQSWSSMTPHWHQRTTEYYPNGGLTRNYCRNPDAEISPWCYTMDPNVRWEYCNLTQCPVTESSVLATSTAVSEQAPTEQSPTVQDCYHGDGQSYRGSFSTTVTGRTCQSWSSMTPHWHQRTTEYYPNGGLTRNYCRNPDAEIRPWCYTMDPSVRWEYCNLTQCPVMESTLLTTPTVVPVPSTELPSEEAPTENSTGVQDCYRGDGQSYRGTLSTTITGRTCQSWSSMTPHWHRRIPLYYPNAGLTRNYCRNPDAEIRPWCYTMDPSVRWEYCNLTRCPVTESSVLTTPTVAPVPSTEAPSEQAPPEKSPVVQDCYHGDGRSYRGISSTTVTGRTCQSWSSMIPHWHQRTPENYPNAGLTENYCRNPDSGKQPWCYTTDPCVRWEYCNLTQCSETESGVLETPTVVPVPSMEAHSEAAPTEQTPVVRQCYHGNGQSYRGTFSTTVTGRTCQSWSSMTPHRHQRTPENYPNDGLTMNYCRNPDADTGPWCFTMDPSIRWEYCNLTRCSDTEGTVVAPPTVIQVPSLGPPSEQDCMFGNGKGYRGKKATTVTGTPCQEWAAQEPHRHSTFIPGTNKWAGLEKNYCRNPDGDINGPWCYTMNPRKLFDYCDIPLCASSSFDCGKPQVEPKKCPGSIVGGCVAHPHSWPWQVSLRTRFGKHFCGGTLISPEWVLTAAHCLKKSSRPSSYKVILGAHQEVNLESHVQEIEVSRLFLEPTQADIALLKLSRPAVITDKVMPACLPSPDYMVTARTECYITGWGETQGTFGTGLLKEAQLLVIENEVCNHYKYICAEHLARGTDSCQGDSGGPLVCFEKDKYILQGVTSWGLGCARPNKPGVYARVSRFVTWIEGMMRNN
Chain of UniProt P00750 (P00750 36-562): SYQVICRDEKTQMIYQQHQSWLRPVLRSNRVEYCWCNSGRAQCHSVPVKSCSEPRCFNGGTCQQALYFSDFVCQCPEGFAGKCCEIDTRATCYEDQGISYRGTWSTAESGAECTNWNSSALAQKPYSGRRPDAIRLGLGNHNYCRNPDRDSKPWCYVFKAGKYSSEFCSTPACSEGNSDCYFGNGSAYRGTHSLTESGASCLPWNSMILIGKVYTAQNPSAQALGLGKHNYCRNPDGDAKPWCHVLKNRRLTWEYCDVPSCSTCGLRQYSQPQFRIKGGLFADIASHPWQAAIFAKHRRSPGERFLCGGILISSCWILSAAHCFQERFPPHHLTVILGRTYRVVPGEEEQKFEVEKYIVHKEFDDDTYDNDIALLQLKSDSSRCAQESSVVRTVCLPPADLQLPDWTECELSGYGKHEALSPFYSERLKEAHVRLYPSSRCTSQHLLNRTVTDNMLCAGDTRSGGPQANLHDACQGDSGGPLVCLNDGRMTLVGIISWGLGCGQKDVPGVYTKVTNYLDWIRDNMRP
Chain of UniProt P09429 (P09429 whole entry): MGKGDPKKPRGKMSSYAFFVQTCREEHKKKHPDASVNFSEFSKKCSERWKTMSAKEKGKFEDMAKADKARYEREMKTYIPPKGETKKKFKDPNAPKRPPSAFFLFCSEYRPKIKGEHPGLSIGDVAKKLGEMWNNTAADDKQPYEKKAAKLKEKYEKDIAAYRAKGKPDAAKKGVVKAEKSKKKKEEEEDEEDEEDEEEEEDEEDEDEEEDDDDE
Chain of UniProt P14210 (P14210 495-728): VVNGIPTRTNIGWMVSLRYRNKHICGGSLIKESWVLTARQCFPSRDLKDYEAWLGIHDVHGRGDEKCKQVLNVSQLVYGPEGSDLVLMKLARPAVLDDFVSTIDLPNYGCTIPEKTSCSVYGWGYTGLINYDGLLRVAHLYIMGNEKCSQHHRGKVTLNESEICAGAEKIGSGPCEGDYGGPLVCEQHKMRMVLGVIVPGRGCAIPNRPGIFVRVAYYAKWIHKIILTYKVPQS

## Tetranectin (from UniProt P05452)
[1]
  pKd: 7.89
[2]
  pKd: 8.69
[3]
  pKd: 6.54
[4]
  pKd: 6.31
[5]
  pKd: 4.60
[6]
  pKd: 6.40
